Residue numbers refer to the chain shown, from its start. Names may count otherwise.
Legend:
[1] = test system: Arabidopsis seedlings, etr1 etr2 ein4 ers1 ers2 background; assay: Ethylene and 1-MCP response of ETR1^D25N lines lacking all five native ethylene receptors; assay type: in vivo; details: 1 μM ethylene
ETR1 = ETR1 (Arabidopsis thaliana, UniProt P49333); details: read-out: calculated dissociation constant (Kd); ethylene binding to ETR1; cited from earlier work
plants = details: in vivo; cited from earlier work
[2] = Copper binding assay: purified ETR1 transmembrane domain titrated to BCA2-Cu(I) complex, absorbance at 562 nm; details: ETR1-TMD expressed and purified from E. coli; Cu(I) stabilized by BCA
Text: Cu(I) was stabilized by the copper chelator BCA, and then titrated with increasing ETR1 protein concentration.
Titration curves were corrected for nonspecific binding observed with chemically and thermally denatured receptor to maximize signal to background levels.

[3] = Saturable [14C]ethylene binding to yeast transgenically expressing ETR1; parameters: species or system Saccharomyces cerevisiae; details: for saturable [14C]ethylene binding: 0.21 μL L^−1 [14C]ethylene, with or without excess [12C]ethylene
Text: Saturable ethylene binding of the ETR1 Asp25 mutants was examined by heterologous expression in yeast, with binding to [^14C]ethylene determined in the presence or absence of excess [^12C]ethylene (FIG. 2C). […] This included the ETR1^D25A mutant, consistent with previous observations, as well as for the ETR1^D25N and ETR1^D25Q mutants (FIG. 2C). Results from the ethylene binding assay are therefore consistent with the negative charge at D25 playing a significant role in mediating high-affinity ethylene binding.
[^14C]ethylene (specific activity=116 mCi/mmol) was obtained from ViTrax Radiochemicals (Placentia, CA) and trapped as the mercuric perchlorate complex as described. For ethylene binding assays in yeast, ETR1 was expressed in the yeast Saccharomyces cerevisiae (strain FY834) using the vector pYcDE-2 and a constitutive ADC1 promoter. The yeast growth media was supplemented with 40 μg L^−1 copper sulfate. Saturable ethylene binding to yeast was determined by analyzing binding of 0.3 g yeast per sample to 0.21 μL L^−1 [^14C]ethylene, in the presence or absence of excess [^12C]ethylene.

[4] = test system: Arabidopsis seedlings, etr1 etr2 ein4 background; assay: Triple-response hypocotyl growth assay of dark-grown seedlings expressing ETR1 transgenes; assay type: in vivo; details: for rescue of growth of etr1 etr2 ein4 triple mutant in air: absence of ethylene, hypocotyl and adult shoot growth
Method: Functionality of the ETR1 Asp25 mutants was tested by transgenic expression in the etr1 etr2 ein4 Arabidopsis background.
Applicant can thus exploit the triple mutant to assess the ability of the ETR1 transgenes to rescue growth in the absence of ethylene as well as their ability to mediate a response to ethylene. Such an analysis indicates whether the encoded receptors are able to assume the ‘on’ conformation that represses the ethylene response in air, as well as the ‘off’ conformation that occurs in response to ethylene binding.
(§1) All Arabidopsis lines were of the Columbia (Col-0) accession. The etr1-1 and etr1-6 etr2-3 ein4-4 mutant lines have been described. Analysis of the triple response of dark-grown Arabidopsis seedlings to ethylene was performed as described previously. Briefly, seedlings were grown at 22° C. on vertically oriented plates on half-strength Murashige and Skoog basal medium with Gamborg's vitamins (pH 5.75; Sigma), 0.8% (w/v) agar, and 5 μM aminoethoxyvinylglycine (AVG) to inhibit ethylene biosynthesis. The stratified seed was exposed to light for 8 hr and then moved to the dark in the presence or absence of ethylene, with analysis of the seedling growth being performed following 4 days total growth. For short-term kinetic analysis of dark-grown seedlings, time-lapse imaging and growth rate analysis of hypocotyls were carried out as described previously.

[5] = test system: Arabidopsis seedlings, etr1 etr2 ein4 background; assay: Short-term kinetic analysis of hypocotyl growth response to ethylene; assay type: in vivo; details: for short-term hypocotyl growth response to ethylene: 10 μL/L ethylene for 2 hr; for growth recovery upon ethylene removal: after 2 hr of 10 μL/L ethylene, 5-hr recovery in air
Method: Based on the differences Applicant uncovered for the long-term ethylene growth responses for the Asp25 mutants, Applicant also analyzed their short-term hypocotyl growth and molecular responses to ethylene. To this end, Applicant performed a short-term kinetic analysis, analyzing the initial hypocotyl growth inhibition in response to 10 μL/L ethylene and the growth recovery following the removal of ethylene after two hours of treatment (FIG. 6A).
as §1

[6] = test system: OSR1, ERF1, EXP5 and EXPb1 expression; assay: Ethylene-dependent gene expression by RT-qPCR; assay type: in vivo, Arabidopsis; details: 0 or 1 μL L^−1 ethylene for 2 hr
Method: To examine the short-term molecular response, Applicant characterized ethylene-dependent gene expression for the ETR1 Asp25 mutants (FIG. 6B). Expression of OSR1 and ERF1 is induced, whereas the expression of EXP5 and EXPb1 is repressed, in response to ethylene.
RNA isolation and RT-qPCR was performed with three biological replicates and two technical replicates of each.

[7] = Saturable [14C]ethylene binding of Arabidopsis seedlings (in planta); details: two-week-old green seedlings, 0.31 μL L^−1 [14C]ethylene, 5 μM AVG
Method: [^14C]ethylene binding was examined in two-week-old green seedlings grown on media containing 5 μM aminoethoxyvinylglycine (AVG) to inhibit ethylene biosynthesis.
For ethylene binding assays with Arabidopsis seedlings, two-week-old green seedlings were used that had been grown on media containing 5 μl M AVG to inhibit ethylene biosynthesis, with ˜1 g seedlings per sample. The fresh weight of seedlings was determined, and each sample packaged into bags formed from a layer of cheese cloth and stapled at the top. Humidity was maintained in the ethylene binding chambers by use of moistened paper towels. Saturable ethylene binding was determined by analyzing binding to 0.31 μL L^−1 [^14C]ethylene, in the presence or absence of excess [^12C]ethylene.

[8] = test system: dark-grown Arabidopsis seedlings; assay: Silver sensitivity assay: effect of silver on ethylene response of dark-grown seedlings; assay type: in vivo; details: transgene in etr1 etr2 ein4 background, 10 μL/L ethylene
Text: As an initial test for the feasibility of the first hypothesis, Applicant asked if ETR1^D25N could still bind a metal cofactor, and therefore potentially ethylene, in planta. For this purpose, Applicant examined the effects of silver (Ag) on ethylene sensitivity. Silver is thought to substitute for the copper cofactor and, although receptors containing silver can still bind ethylene, they no longer transmit the signal, resulting in ethylene insensitivity.

[9] = previously reported; cited from earlier work
[10] = previously reported; cited from earlier work; remark: listed apart in the source
[11] = test system: Arabidopsis seedlings, etr1 etr2 ein4 background; details: previously reported; cited from earlier work

Chain of ETR1 (P49333 whole entry): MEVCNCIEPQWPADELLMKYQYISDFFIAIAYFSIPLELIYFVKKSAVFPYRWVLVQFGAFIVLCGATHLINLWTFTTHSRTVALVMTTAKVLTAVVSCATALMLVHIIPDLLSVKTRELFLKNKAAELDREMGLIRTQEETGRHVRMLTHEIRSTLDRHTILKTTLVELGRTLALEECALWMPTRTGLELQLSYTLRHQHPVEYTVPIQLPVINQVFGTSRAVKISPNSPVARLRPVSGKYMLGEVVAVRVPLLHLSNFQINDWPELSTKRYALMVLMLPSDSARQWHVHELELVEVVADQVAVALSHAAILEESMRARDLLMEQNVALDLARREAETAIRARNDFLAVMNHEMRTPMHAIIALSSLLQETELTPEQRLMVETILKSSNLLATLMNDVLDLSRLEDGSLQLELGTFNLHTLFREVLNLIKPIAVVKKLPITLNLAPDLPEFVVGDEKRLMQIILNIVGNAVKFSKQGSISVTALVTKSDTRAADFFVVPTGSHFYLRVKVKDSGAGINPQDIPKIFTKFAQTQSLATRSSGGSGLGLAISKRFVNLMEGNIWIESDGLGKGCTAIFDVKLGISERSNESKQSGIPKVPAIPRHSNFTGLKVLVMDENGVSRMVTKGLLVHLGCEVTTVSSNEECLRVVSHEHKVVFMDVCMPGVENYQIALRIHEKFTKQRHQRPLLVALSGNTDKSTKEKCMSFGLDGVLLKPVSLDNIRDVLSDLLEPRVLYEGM

## CC1=CC1 [1-methylcyclopropene, reference compound]
[1]; ETR1^D25N (etr1 etr2 ein4 ers1 ers2) lines, 1 μM 1-MCP
  effect of 1-MCP on ethylene response: blocked

## C=C [Ethylene, ethylene]
ETR1
  Kd: 2.4 nM
plants
  ethylene concentration plants respond to (as low as): 0.2 nL L^−1

## ETR1^wt: wild-type ethylene receptor ETR1 of Arabidopsis
[2]
  copper binding: copper binding
[3]
  saturable [14C]ethylene binding: Saturable binding
[4]
  rescue of growth of etr1 etr2 ein4 triple mutant in air: rescued growth
[5]
  short-term hypocotyl growth response to ethylene: rapid growth response to ethylene
  growth recovery upon ethylene removal: growth recovery intermediate between that exhibited by the wild-type and the etr1 etr2 ein4 seedlings
[6]
  molecular response to ethylene (ethylene-dependent gene expression): consistent with what is observed in the wild-type control
[7]
  ethylene binding in planta versus etr1 etr2 ein4 basal level: significant increase in ethylene binding
[8]
  ability of silver to block the ethylene response in transgene lines: restores the ability of silver to block the ethylene response

B1: etr1-1: well-characterized ETR1 missense mutation Cys65Tyr; ethylene-insensitive control (protein, UniProt P49333 1-738, looked up, variant C65Y)
Ethylene receptor 1: MEVCNCIEPQWPADELLMKYQYISDFFIAIAYFSIPLELIYFVKKSAVFPYRWVLVQFGAFIVLYGATHLINLWTFTTHSRTVALVMTTAKVLTAVVSCATALMLVHIIPDLLSVKTRELFLKNKAAELDREMGLIRTQEETGRHVRMLTHEIRSTLDRHTILKTTLVELGRTLALEECALWMPTRTGLELQLSYTLRHQHPVEYTVPIQLPVINQVFGTSRAVKISPNSPVARLRPVSGKYMLGEVVAVRVPLLHLSNFQINDWPELSTKRYALMVLMLPSDSARQWHVHELELVEVVADQVAVALSHAAILEESMRARDLLMEQNVALDLARREAETAIRARNDFLAVMNHEMRTPMHAIIALSSLLQETELTPEQRLMVETILKSSNLLATLMNDVLDLSRLEDGSLQLELGTFNLHTLFREVLNLIKPIAVVKKLPITLNLAPDLPEFVVGDEKRLMQIILNIVGNAVKFSKQGSISVTALVTKSDTRAADFFVVPTGSHFYLRVKVKDSGAGINPQDIPKIFTKFAQTQSLATRSSGGSGLGLAISKRFVNLMEGNIWIESDGLGKGCTAIFDVKLGISERSNESKQSGIPKVPAIPRHSNFTGLKVLVMDENGVSRMVTKGLLVHLGCEVTTVSSNEECLRVVSHEHKVVFMDVCMPGVENYQIALRIHEKFTKQRHQRPLLVALSGNTDKSTKEKCMSFGLDGVLLKPVSLDNIRDVLSDLLEPRVLYEGM
[9]
  copper cofactor binding (previous studies): no longer binds the copper cofactor
[10]
  ethylene binding (previous studies): no longer binds ethylene
[11]
  ethylene sensitivity of plants (previous studies): confers dominant ethylene insensitivity

B2: ETR1^D25N: ETR1 with site-directed mutation Asp25Asn, carboxylic acid changed to carboxamide (protein, UniProt P49333 1-738, looked up, variant D25N)
Ethylene receptor 1: B1 Ethylene receptor 1 with D25N, Y65C
[2]
  copper binding: minimal residual binding
[3]
  saturable [14C]ethylene binding: No saturable [^14C]ethylene binding was detected
[3]; relative to ETR1^wt, suggested by inability to detect [14C]ethylene binding
  koff increase: at least 100 fold
[4]
  rescue of growth of etr1 etr2 ein4 triple mutant in air: rescued growth
[4]; dark-grown seedlings, 0 or 1 μL L^−1 ethylene
  hypocotyl growth response to ethylene: rescued the hypocotyl growth response to ethylene to the same degree as ETR1^wt
[5]
  short-term hypocotyl growth response to ethylene: rapid growth response to ethylene
  growth recovery upon ethylene removal: growth recovery intermediate between that exhibited by the wild-type and the etr1 etr2 ein4 seedlings
[6]
  molecular response to ethylene (ethylene-dependent gene expression): consistent with what is observed in the wild-type control
[7]
  ethylene binding in planta versus etr1 etr2 ein4 basal level: no increase in ethylene binding
[8]
  ability of silver to block the ethylene response in transgene lines: restores the ability of silver to block the ethylene response
[1]; etr1 etr2 ein4 ers1 ers2 lines #11 and #15
  response to ethylene without other native receptors: still responded to ethylene
